Target: HLA-A*02:01 (Homo sapiens, UniProt P04439, D140Y/D185E/D98H/E176V/E277Q/G131W/G231S/I119V/I121R/I166T/I218V/L300P/L318F/N151K/N90K/P208A/P217A/Q86G/Q94H/R138H/R169H/T345S)
Experiment: MHC binding assay (UV-ligand exchange, beta2m ELISA, peptide exchange yield)
Settings: binding of HLA-class I restricted peptides to HLA-A*02:01, ranged by peptide exchange yield (UV-ligand exchange, β2m ELISA)
How it was run: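 Readout is a β2m ELISA: stabilized complexes captured on streptavidin, detected with HRP-conjugated anti-β2m and TMB at 450 nm, reporting peptide exchange yield. Complexes come from UV-light cleavage of a conditional ligand in HLA-A*02:01 and replacement by the candidate peptide, samples diluted 100-fold.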

Substance | Peptide exchange
531 (YTLPIASSIRL; listed as Homo sapiens) [compound 531] | ″+++″ (≥50% = +++)
389 (LLADVTHLL; listed as Homo sapiens) [compound 389] | ″++″ (≥20% = ++)
158 (KLFDVDEDGYI; listed as Homo sapiens) [compound 158] | ″+++″ (≥50% = +++)
450 (FMIDASVHPTL; listed as Homo sapiens) [compound 450] | ″+++″ (≥50% = +++)
617 (ALMYESEKVGV; listed as Homo sapiens) [compound 617] | ″+++″ (≥50% = +++)
476 (ALMERTGYSMV; listed as Homo sapiens) [compound 476] | ″+++″ (≥50% = +++)
537 (TLAPGEVLRSV; listed as Homo sapiens) [compound 537] | ″+++″ (≥50% = +++)
330 (QLALKVEGV; listed as Homo sapiens) [compound 330] | ″+++″ (≥50% = +++)
571 (LLLTTIPQI; listed as Homo sapiens) [compound 571] | ″+++″ (≥50% = +++)
344 (YLQDQHLLLTV; listed as Homo sapiens) [compound 344] | ″+++″ (≥50% = +++)
289 (VLLEIEDLQV; listed as Homo sapiens) [compound 289] | ″++++″ (≥75% = ++++)
246 (LLWEVVSQL; listed as Homo sapiens) [compound 246] | ″+++″ (≥50% = +++)
340 (ALLSMTFPL; listed as Homo sapiens) [compound 340] | ″++++″ (≥75% = ++++)
227 (ALMNTLLYL; listed as Homo sapiens) [compound 227] | ″++″ (≥20% = ++)
69 (FQLDPSSGVLVTV; listed as Homo sapiens) [compound 69] | ″+++″ (≥50% = +++)
378 (ALGYFVPYV; listed as Homo sapiens) [compound 378] | ″+++″ (≥50% = +++)

Substance | Peptide exchange
405 (ALYDVFLEV; listed as Homo sapiens) [compound 405] | ″++″ (≥20% = ++)
526 (RLAEVGQYEQV; listed as Homo sapiens) [compound 526] | ″++″ (≥20% = ++)
592 (RLLSAAENFL; listed as Homo sapiens) [compound 592] | ″+++″ (≥50% = +++)
588 (SLLPLSHLV; listed as Homo sapiens) [compound 588] | ″+++″ (≥50% = +++)
218 (SALEELVNV; listed as Homo sapiens) [compound 218] | ″++″ (≥20% = ++)
426 (RLADKSVLV; listed as Homo sapiens) [compound 426] | ″+++″ (≥50% = +++)
550 (FLYDEIEAEVNL; listed as Homo sapiens) [compound 550] | ″+++″ (≥50% = +++)
332 (YLISELEAA; listed as Homo sapiens) [compound 332] | ″+++″ (≥50% = +++)
479 (SLFGNSGILENV; listed as Homo sapiens) [compound 479] | ″+++″ (≥50% = +++)
577 (VMFEDGVLMRL; listed as Homo sapiens) [compound 577] | ″+++″ (≥50% = +++)
126 (VLAYFLPEA; listed as Homo sapiens) [compound 126] | ″++++″ (≥75% = ++++)
57 (TLAELQPPVQL; listed as Homo sapiens) [compound 57] | ″+++″ (≥50% = +++)
145 (FLATSGTLAGI; listed as Homo sapiens) [compound 145] | ″++″ (≥20% = ++)
480 (ALLEDSCHYL; listed as Homo sapiens) [compound 480] | ″+++″ (≥50% = +++)
567 (SLLPLDDIVRV; listed as Homo sapiens) [compound 567] | ″+++″ (≥50% = +++)

Now from value to substance:

Peptide exchange | Substance
″+++″ (≥50% = +++) | 59 (IMEDIILTL; listed as Homo sapiens) [compound 59]
″++++″ (≥75% = ++++) | 337 (HLLSELEAAPYL; listed as Homo sapiens) [compound 337]
″++″ (≥20% = ++) | 221 (ALYEEGLLL; listed as Homo sapiens) [compound 221]
″++++″ (≥75% = ++++) | 310 (FLVDTPLARA; listed as Homo sapiens) [compound 310]
″+″ (≥10% = +) | 153 (FLIANVLYL; listed as Homo sapiens) [compound 153]
″++″ (≥20% = ++) | 504 (GLSDGNPSL; listed as Homo sapiens) [compound 504]
″++″ (≥20% = ++) | 84 (VTFGEKLLGV; listed as Homo sapiens) [compound 84]
″+++″ (≥50% = +++) | 394 (LLAVIGGLVYL; listed as Homo sapiens) [compound 394]
″+++″ (≥50% = +++) | 563 (WLLPYNGVTV; listed as Homo sapiens) [compound 563]
″+++″ (≥50% = +++) | 619 (ALQDRVPLA; listed as Homo sapiens) [compound 619]
″+++″ (≥50% = +++) | 612 (YLYNEGLSV; listed as Homo sapiens) [compound 612]
″+++″ (≥50% = +++) | 236 (GLLEAKVSL; listed as Homo sapiens) [compound 236]
″++″ (≥20% = ++) | 455 (SLLKEPQKVQL; listed as Homo sapiens) [compound 455]
″++″ (≥20% = ++) | 31 (YLAPELFVNV; listed as Homo sapiens) [compound 31]
